Source: publication PMC8442553 (Science (New York, N.Y.), 2019)

T1: Rsc9 (yeast, UniProt Q03124 1-581)
T1 sequence: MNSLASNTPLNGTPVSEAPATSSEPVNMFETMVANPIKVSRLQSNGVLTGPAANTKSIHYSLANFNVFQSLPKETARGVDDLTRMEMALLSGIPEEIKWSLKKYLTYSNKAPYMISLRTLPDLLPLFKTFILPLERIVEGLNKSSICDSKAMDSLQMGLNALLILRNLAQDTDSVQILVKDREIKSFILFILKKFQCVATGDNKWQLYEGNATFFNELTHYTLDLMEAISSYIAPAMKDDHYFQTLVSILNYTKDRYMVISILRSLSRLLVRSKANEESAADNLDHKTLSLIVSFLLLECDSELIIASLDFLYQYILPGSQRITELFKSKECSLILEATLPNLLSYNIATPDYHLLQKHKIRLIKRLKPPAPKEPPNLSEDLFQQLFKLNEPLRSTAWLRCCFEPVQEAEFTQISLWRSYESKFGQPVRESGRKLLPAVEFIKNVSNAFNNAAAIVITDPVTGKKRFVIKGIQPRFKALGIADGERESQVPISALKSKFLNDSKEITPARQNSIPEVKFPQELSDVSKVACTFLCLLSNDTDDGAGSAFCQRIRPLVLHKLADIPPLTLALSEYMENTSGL

T2: Rsc58 (yeast, UniProt Q07979 1-502)
T2 sequence: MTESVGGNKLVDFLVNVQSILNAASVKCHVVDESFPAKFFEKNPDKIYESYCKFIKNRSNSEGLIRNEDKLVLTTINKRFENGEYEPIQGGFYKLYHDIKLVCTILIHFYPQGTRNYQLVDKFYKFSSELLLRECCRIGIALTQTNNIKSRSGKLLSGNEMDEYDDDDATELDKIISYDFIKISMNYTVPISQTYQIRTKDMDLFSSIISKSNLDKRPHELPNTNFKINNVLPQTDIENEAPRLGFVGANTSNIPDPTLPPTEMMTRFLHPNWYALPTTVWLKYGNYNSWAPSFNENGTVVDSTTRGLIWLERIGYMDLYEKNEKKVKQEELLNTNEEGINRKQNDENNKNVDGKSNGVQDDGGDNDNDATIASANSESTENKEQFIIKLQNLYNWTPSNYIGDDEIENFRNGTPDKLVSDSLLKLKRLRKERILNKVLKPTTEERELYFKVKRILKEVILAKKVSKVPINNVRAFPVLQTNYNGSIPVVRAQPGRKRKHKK

T3: Sth1 (yeast, UniProt P32597 1-1359)
T3 sequence: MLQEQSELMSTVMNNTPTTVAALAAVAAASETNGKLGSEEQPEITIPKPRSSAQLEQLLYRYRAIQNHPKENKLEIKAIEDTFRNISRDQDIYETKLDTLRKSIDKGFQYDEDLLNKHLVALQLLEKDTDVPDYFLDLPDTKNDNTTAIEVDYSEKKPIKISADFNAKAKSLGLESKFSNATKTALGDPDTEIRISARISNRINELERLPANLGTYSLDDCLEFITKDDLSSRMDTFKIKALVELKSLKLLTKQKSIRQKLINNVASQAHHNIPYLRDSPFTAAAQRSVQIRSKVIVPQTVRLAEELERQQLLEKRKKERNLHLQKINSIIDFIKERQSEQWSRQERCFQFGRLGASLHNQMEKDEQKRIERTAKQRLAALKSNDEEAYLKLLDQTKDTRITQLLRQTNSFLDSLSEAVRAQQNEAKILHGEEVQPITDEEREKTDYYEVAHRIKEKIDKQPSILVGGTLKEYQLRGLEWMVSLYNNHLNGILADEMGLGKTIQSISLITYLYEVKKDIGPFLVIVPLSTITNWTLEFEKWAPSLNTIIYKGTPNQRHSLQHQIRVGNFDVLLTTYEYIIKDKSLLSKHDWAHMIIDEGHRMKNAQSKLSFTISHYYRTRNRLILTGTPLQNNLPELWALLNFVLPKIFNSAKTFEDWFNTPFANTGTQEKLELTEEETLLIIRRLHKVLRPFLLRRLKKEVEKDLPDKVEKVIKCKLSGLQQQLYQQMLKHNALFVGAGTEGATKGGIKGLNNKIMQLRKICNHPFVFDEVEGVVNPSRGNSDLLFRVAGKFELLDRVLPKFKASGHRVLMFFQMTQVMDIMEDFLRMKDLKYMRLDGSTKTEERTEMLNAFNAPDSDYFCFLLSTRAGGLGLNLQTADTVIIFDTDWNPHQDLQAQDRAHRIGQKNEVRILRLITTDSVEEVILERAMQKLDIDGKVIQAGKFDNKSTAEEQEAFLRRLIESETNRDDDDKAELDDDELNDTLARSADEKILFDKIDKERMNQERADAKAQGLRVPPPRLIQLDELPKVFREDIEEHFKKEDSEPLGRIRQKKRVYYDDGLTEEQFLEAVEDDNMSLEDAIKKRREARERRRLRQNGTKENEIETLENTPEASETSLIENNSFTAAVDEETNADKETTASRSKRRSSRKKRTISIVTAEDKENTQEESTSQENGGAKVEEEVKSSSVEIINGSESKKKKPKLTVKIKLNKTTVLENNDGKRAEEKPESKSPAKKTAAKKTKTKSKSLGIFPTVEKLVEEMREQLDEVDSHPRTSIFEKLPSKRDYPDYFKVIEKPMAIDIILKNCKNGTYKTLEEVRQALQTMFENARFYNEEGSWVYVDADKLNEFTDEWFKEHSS

B1: Rsc6 (natural protein, yeast)
chain: MVTQTNPVPVTYPTDAYIPTYLPDDKVSNLADLKKLIEMDSRLDLYLTRRRLDTSINLPTNTKTKDHPPNKEMLRIYVYNTTESSPRSDSGTPADSGKTTWTLRIEGKLLHESANGKHPFSEFLEGVAVDFKRLKPLGMGKKRKRDSSLSLPLNLQQPEYNDQDSTMGDNDNGEDEDSAEAESREEIVDALEWNYDENNVVEFDGIDIKRQGKDNLRCSITIQLRGVDGGKVQYSPNLATLIGMQTGSVNDAVYSIYKYILINNLFVTEQTEAQDGSNDAEDSSNENNNKNGAGDDDGVEGSTPKDKPELGEVKLDSLLQKVLDTNAAHLPLMNVVQTVNKLVSPLPPIILDYTIDLSKDTTYGATTLDVDVSHILHQPQPQPNLQKEEETDAEDTAKLREITKLALQLNSSAQKYQFFHELSLHPRETLTHYLWSSKQNELVLQGDQYFNEDAARTSDIYSNNNNDRSLMGNISLLYSQGRL
B2: Rsc8 (natural protein, yeast)
chain: MSDTEKDKDVPMVDSHEATEEPPTTSTNTPSFPHLAQEQAKEESATLGAEVAHKKINYEQEAQKLEEKALRFLAKQTHPVIIPSFASWFDISKIHEIEKRSNPDFFNDSSRFKTPKAYKDTRNFIINTYRLSPYEYLTITAVRRNVAMDVASIVKIHAFLEKWGLINYQIDPRTKPSLIGPSFTGHFQVVLDTPQGLKPFLPENVIKQEVEGGDGAEPQVKKEFPVNLTIKKNVYDSAQDFNALQDESRNSRQIHKVYICHTCGNESINVRYHNLRARDTNLCSRCFQEGHFGANFQSSDFIRLENNGNSVKKNWSDQEMLLLLEGIEMYEDQWEKIADHVGGHKRVEDCIEKFLSLPIEDNYIREVVGSTLNGKGGDSRDGSVSGSKLMECVNDAVQTLLQGDDKLGKVSDKSREISEKYIEESQAIIQELVKLTMEKLESKFTKLCDLETQLEMEKLKYVKESEKMLNDRLSLSKQILDLNKSLEELNVSKKLVLISEQVDSGIQLVEKDQEGDDEDGNTATGHGVKRVGKEGEEVGEGDSIAKLQPQVYKPWSL

What was measured:
Experiment in all cases: cryo-EM structure
[1] = target: T1, Rsc9
[2] = target: T2, Rsc58
[3] = target: B2
[4] = target: the molecule itself
[5] = target: T3, Sth1

Row | Binder | binding result [1] | binding result [2] | binding result [3] | binding result [4] | binding result [5]
1 | B1 | binds | binds | binds |  | 
2 | B2 |  |  |  | binds | binds
